In PMC6786648:

Target: EXP1 with G to L point mutations of the first glycine residues of the two GXXG motifs of the TM domain, Ty-tagged (P. falciparum) (UniProt Q8IIF0)
Assay: cross-linking; in vivo: parasite cultures in PBS with 1% formaldehyde (PFA), 37°C, 30 minutes, quenched with 30 mM Tris-HCl pH 8.0; extracts of treated and untreated cells immunoblotted with α-Ty

With “EXP1 with G to L point mutations of the first glycine residues of the two GXXG motifs of the TM domain, Ty-tagged (from UniProt Q8IIF0 1-162) (natural protein)” the stoichiometry N was 2.
